Columns and labels:
Test in all cases: single-molecule fluorescence
pMcsB-HaloTag = target: T1, pMcsB-HaloTag (Geobacillus stearothermophilus (printed …, UniProt P0DMM5 1-363))
T1 sequence: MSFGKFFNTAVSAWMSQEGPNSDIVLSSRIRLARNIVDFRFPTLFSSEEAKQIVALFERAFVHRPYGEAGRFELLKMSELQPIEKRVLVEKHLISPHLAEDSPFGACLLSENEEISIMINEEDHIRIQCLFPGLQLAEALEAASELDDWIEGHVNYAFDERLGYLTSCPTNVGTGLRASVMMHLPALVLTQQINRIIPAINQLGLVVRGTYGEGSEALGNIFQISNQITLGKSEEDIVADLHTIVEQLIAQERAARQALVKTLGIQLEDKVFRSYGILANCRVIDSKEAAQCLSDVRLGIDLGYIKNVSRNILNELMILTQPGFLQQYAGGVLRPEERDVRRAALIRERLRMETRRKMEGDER

pMcsB = target: T2, pMcsB (Geobacillus stearothermophilus (printed …, UniProt P0DMM5))
T2 sequence: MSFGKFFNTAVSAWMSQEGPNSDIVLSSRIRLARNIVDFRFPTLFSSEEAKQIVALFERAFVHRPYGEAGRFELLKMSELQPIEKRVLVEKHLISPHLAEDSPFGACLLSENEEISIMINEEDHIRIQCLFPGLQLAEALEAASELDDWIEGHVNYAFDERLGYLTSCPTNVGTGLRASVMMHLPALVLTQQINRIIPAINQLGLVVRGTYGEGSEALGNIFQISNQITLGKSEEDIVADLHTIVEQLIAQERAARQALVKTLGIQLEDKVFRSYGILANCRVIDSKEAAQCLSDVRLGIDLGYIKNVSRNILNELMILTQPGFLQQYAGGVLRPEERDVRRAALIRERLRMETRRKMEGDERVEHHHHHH

CtsR = target: T3, CtsR (Geobacillus stearothermophilus (printed …, UniProt C3W947))
T3 sequence: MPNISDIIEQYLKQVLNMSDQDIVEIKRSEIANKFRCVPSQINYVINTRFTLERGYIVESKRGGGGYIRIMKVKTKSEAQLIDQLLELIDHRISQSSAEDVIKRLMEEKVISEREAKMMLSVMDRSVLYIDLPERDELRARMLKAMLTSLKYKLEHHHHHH

B1: cognate Cy3 DNA probe (T7 label) (dsDNA)
DNA 1: CGATTACGGCAATTCAGGAATACCGCTAATG
DNA 2: GCTGATTAAGGTCAAATATAGTCAAAATAGAGTTCATTAGCGGTATTCCTGAATTGCCGTAATCG
DNA 3: CTCTATTTTGACTATATTTGACCTTAATCAGC
modifications: amino-C6-dT at T7 of strand 3 (S8 printed split around it)
- binding result (pMcsB-HaloTag): no binding
- binding result (pMcsB): no binding
- Kd (CtsR): ~12 nM

From article doi:10.1101/2024.12.26.630380
